In PMC6746701, “A phyB-PIF1-SPA1 kinase regulatory complex promotes photomorphogenesis in Arabidopsis” (Nature Communications, 2019):

How the values were obtained:
[1] = molecular target: T1, strep-tagged full-length SPA1 (SUPPRESSOR OF PHYA-105 1) (Arabidopsis, UniProt Q9SYX2 1-1029); experiment: pull-down; 2 µg GST-PIF1 on GST agarose beads, 1 µg SPA1 or mSPA1; 50 mM Tris pH 7.5, 150 mM NaCl, 1 mM EDTA, 0.1% Tergitol NP-40, 0.5 mM DTT; 2 h at 4 °C; Coomassie staining; details: both partners purified
T1 construct: 3x Flag was cloned into the SnaBI site of pPIC3.5K SPA1-strep; also called SPA1-strep; wild type SPA1; source: Pichia pastoris GS115, purified (Strep-Tactin Sepharose); not shown: Strep tag, C-terminal, kept
T1 sequence (looked up): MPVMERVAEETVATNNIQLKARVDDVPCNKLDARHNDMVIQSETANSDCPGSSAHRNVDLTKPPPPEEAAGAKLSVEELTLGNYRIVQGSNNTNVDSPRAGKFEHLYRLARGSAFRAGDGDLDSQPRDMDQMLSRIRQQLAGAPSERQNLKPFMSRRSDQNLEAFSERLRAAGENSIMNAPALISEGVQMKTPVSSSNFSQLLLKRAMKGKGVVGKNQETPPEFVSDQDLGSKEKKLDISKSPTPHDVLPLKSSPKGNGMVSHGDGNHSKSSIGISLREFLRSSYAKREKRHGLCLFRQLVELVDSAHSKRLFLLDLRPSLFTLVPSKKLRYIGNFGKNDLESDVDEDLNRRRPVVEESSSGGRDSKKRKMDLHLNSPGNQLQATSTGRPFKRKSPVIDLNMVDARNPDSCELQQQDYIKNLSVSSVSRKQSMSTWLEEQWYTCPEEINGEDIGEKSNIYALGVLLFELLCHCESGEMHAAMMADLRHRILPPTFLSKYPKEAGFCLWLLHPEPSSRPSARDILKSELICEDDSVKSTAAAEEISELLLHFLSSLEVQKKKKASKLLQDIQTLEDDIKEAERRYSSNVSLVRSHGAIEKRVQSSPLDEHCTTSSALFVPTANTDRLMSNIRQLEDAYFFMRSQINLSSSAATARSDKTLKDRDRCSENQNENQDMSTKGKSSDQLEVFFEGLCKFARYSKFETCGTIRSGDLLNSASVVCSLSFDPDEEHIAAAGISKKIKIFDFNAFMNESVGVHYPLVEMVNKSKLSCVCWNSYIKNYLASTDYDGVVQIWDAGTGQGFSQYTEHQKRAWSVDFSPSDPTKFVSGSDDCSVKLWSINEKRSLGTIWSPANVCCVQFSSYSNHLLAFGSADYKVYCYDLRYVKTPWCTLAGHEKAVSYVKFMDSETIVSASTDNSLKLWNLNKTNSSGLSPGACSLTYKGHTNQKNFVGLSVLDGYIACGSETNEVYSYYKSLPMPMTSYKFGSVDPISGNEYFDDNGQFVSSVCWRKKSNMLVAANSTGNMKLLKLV

[2] = molecular target: T2, strep-tagged full-length mSPA1 (SPA1 R517E) (Arabidopsis, UniProt Q9SYX2 1-1029, R517E); experiment: as above; details: both partners purified
T2 construct: SPA1, Arabidopsis, full length, with the kinase-domain point mutation R517E; Same construct as m1 apart from R517E; also called mSPA1-strep; mutant SPA1; source: Pichia pastoris, purified (Strep-Tactin Sepharose); not shown: Strep tag, C-terminal, kept
T2 sequence (looked up): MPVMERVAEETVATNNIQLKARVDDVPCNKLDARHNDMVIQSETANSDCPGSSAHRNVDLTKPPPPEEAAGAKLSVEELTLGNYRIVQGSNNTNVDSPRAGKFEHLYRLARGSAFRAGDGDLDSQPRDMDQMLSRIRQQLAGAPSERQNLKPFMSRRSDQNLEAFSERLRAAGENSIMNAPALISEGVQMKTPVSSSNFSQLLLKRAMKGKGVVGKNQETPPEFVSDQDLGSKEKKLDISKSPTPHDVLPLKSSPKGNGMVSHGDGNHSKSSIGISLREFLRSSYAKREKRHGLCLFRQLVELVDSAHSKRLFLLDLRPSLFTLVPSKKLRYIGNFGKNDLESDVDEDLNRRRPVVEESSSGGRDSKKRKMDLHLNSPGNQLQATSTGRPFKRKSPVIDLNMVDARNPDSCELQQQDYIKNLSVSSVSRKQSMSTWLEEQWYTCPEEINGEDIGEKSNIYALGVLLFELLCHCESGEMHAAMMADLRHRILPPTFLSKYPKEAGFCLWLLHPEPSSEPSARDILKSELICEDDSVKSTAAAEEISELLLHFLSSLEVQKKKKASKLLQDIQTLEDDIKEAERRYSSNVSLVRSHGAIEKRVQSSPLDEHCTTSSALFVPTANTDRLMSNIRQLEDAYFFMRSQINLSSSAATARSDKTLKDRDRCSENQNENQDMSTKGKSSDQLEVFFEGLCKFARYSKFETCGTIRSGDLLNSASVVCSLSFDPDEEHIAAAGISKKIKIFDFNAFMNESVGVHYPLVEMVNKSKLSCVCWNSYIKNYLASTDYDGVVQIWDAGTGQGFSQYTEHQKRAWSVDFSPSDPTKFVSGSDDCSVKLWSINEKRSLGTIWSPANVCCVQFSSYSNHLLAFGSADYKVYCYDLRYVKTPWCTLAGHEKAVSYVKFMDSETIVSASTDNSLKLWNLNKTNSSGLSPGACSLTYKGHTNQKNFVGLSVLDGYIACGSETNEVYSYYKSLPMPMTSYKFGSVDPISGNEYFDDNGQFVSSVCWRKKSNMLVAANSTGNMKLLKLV

binding result [1]: binds | binding result [2]: binds
B1: GST-PIF1-strep (natural protein, Arabidopsis, UniProt Q8GZM7 1-478, looked up)
chain: MHHFVPDFDTDDDYVNNHNSSLNHLPRKSITTMGEDDDLMELLWQNGQVVVQNQRLHTKKPSSSPPKLLPSMDPQQQPSSDQNLFIQEDEMTSWLHYPLRDDDFCSDLLFSAAPTATATATVSQVTAARPPVSSTNESRPPVRNFMNFSRLRGDFNNGRGGESGPLLSKAVVRESTQVSPSATPSAAASESGLTRRTDGTDSSAVAGGGAYNRKGKAVAMTAPAIEITGTSSSVVSKSEIEPEKTNVDDRKRKEREATTTDETESRSEETKQARVSTTSTKRSRAAEVHNLSERKRRDRINERMKALQELIPRCNKSDKASMLDEAIEYMKSLQLQIQMMSMGCGMMPMMYPGMQQYMPHMAMGMGMNQPIPPPSFMPFPNMLAAQRPLPTQTHMAGSGPQYPVHASDPSRVFVPNQQYDPTSGQPQYPAGYTDPYQQFRGLHPTQPPQFQNQATSYPSSSRVSSSKESEDHGNHTTG
notes: source: E. coli BL21(DE3), purified (Strep-Tactin Sepharose); not shown: GST, N-terminal, kept; Strep tag, C-terminal, kept
